Stoichiometry N data for one substance are collected here from paper PMC4159253.

In this assay the target is F241A IgG1 Fc fragment (human). Kind of assay: crystal structure.

As usually defined, the stoichiometry N is a count of units in the complex or per binding partner. The substance “F241A IgG1 Fc fragment (domain or fragment)” came in with a stoichiometry N of 2.
